Measured values from the nanobody polyreactivity screen of Harvey et al. (2022).

Assay: yeast display, Sf9 membrane polyspecificity reagent, FACS + sequencing; frameworks hold sequencing errors
Method in brief: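 A synthetic nanobody library was expressed on Saccharomyces cerevisiae BJ5465 by galactose induction for 36–48 hours. The library was stained for 1 hour at 4 °C with 10% biotinylated, detergent-solubilized Sf9 membrane reagent and enriched with streptavidin microbeads before FACS. Low and high (top ~1%) gates were set on anti-HA fluorescence for expression and streptavidin fluorescence for reagent binding, and each polyreactivity label reflects the gate of origin.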

For “QVQLVESGGGLVQAGGSLRLSCAASGRIFSHYAMGWYRQAPGKERELVAAITWSGGRTYYADSVKGRFTISRDNAKNTVYLQMNSLKPEDTAVYYCNAYPSSSLFDYWGQGTQVTVSS”, the “polyreactivity (PSR sort gate)” value was “low polyreactivity”.

In the case of “QGQLVESGGGLVQAGGSLRIICAASANNFAKYAMGRYRQAPGKERELVAAISKRGGSTYYADSVKGRFTISRDNAKNTVYLQMNSLKPEETAVYYCAQRVLNYQRYDYWGQGTQVTVSS”, the “polyreactivity (PSR sort gate)” value is reported as “high polyreactivity”.

For “QVQLVESGGGLVQAGGSLRLSCAASVSTFYRNAMGWYRQAPGKERELVADISASGGSTYYADSVKGRFTISRDNAKNTVYLQMNSLKPEDTAVYYCNALYFYFYNYLTIVYWGQGTQVSVSS”, the “polyreactivity (PSR sort gate)” value was “low polyreactivity”.

In the case of “QVQLVESGGGLVQAGGSLRLSCAASGRTFWYYTMGWYRQAPGKERELVAAITRRGGSTYYADSVKGRFTLSRDKAKNTVYLQMNSLKPEDTAVYYCARGGSRLTQGWLVTPYDYDYWGQGTQVTVSS”, the “polyreactivity (PSR sort gate)” value is reported as “high polyreactivity”.

For “QVQLVESGGGLGQAGGSLRLSCAASGRTLGIYAMGWYRQAPGKERELVAAITWSGGSTYYADSVKGRFTISRDNAKNTVYLQMNSLKPEDTAVYYCNVRSGGKRRNSGRVDYWGQGTQVTVSS”, the “polyreactivity (PSR sort gate)” value was “low polyreactivity”.

With “QGQLVESVGGLVQAGVSLRLSCAASGRIFPSYAMGCYRPAPGKERELVAAISSSGGRTYYADSVKGRFTISRDNAKNTVYLQMNSLKPEDTAVYYCAARWVHYGVRYDYWGPGTQVTVSS” the “polyreactivity (PSR sort gate)” value was “high polyreactivity”.

With “QVQLVESGGGLVQAGGSLRLSSAASGSIFPRYVMGCYRQAPGKERELVPAISRGGSTNYADSVKGRFTISRDNAKNTVYLQMNSLKPEDTAVYYCDAVLYTRYNYWGQGTQVTVSS” the “polyreactivity (PSR sort gate)” value was “high polyreactivity”.

In the case of “QVQLVESGGGLVQAGGSLRLSCAASARIIGTYAMGWYRQATGKERELVAASTRGGTTYYADSVKGRFTISRDNAKNTVYLQMNSLIPEDTAVYYCATGPAIRYDYWGQGTQVTVSS”, the “polyreactivity (PSR sort gate)” value is reported as “low polyreactivity”.

With “QVQLVESGGGLVQAGGSLRLSCAASGFIFAFYARGWYRQAPGKERELVASISRRSGSTYYADSVKGRFTISRDNAKNNVYLQMNSLKPEDTAVYYCSADRPPWETYGYDYWGQGTQVTVSS” the “polyreactivity (PSR sort gate)” value was “low polyreactivity”.

For “QVQLVESGGGLVQAGGSLRLSCAASGITLYRYAMGCYRQAPGKERELVADISSGGGTTYYADSVKGRFTISRDNAKNTVYLQMNSLKPEDTAVYYCAADYGFRYPLYDYWGQGTQVTVSS”, the “polyreactivity (PSR sort gate)” value was “low polyreactivity”.

With “QVQLVESGGGLVQAGGSLRLSCAASGSIMGWSRQAPGTERELVAAISRGGSTYYADSVKGRFTISRDNAKNTVYLQMNSLKPEDTAVYYCAAKTGGSRSRFEYWGQGTQVTVSS” the “polyreactivity (PSR sort gate)” value was “high polyreactivity”.

For “QVQLVESGGGLVQAGGSLRLSCAASGFNTRLYAMGWYRQAPGKEREFVAAISWDGTRTYYADSVKGRFTISRDTANKTFYLQMNSLKPEDTAVSYCNARRRQWQARYDYWGQGTQITVSS”, the “polyreactivity (PSR sort gate)” value was “high polyreactivity”.

With “QVQLVESGGGVVQAGGSLRLSCAASGSTFYINTMGWSRPAPGKDRELVAAISWTGGRTYYAASVKGRFTISRANAKNTVYLQMNSLKPEDTAVYYCAAYYNIPDRRRVGYDYWGQGTQVTVSS” the “polyreactivity (PSR sort gate)” value was “high polyreactivity”.

In the case of “QVQLVESGGGLVQAGGSLRLSCAASGSTFYYYAMGWYRQAPGKERELVAAIDTSVDSTYYADSVKGRFTISRDNAKNTVYLQMNSLKPEDTAVYYCNARSRTGYTNRMYYWGQGTQVTVSS”, the “polyreactivity (PSR sort gate)” value is reported as “high polyreactivity”.

In the case of “QVQHEDSGGGLVQAGGSHPLSCAASGSTFRVNAMGWYRQAPGKERELVAAISRRGGSTYYADSVKGRFTISRDNSKNTVYLQMNCLKPEDTAVYYCAAERLGTVQDDYWGQGTQVTVSS”, the “polyreactivity (PSR sort gate)” value is reported as “high polyreactivity”.

In the case of “QIQLVESGGGLVQAGGSLRLSCAASGGIFYINAMGWYRQAPGKERELVAAITESSDITYYADSVKGRFTISRDNAKNSVYLQINSLKPEDTAVYYCAAEFVRSGDDYWGQGTQVTVSS”, the “polyreactivity (PSR sort gate)” value is reported as “low polyreactivity”.

For “QVQLVESGGGLVQAGGSLRLSCAASGSIFPRNAMGWYRQAPGKERELVARINSGGTTKYADSVKGRFTISRDNAKNTVYLQMNSLKPEDTAVYYCNADTYILDPLRKSYGYDYWGQGTQVTVSS”, the “polyreactivity (PSR sort gate)” value was “low polyreactivity”.

With “QVQLVESGGGLVQAGGSLRLSCAASGRIFRLYTMGWYRPAPGKERELVAAISGSGGRTYYADSVKGRFTISRDNAKNTVYLQMNSLKPEDTAVYYCAKVGYKSPYLYSQHYTGFGYWGQGTQVTVSS” the “polyreactivity (PSR sort gate)” value was “high polyreactivity”.

In the case of “QFQLVESGGGLVQAGGSLRLSCAASGSTFITNAMGCYRQAPGKERELVASITRGAGSTYYADSVKGRITISRDNAKNTVYLQMNSLKPEDTAVYYCRLAPRYRKGGYWGQGTQVTVSS”, the “polyreactivity (PSR sort gate)” value is reported as “high polyreactivity”.

In the case of “QVQLVESAGGLVQAGGRLRLSCAASGFIFTTNAMGWYRQAPGKEREFVAAITRSGGSTYADSVKGRFTISRDNAKNTVYLQMNSLKPEDTAVYYFNADWAGVDTSYEYDYWGQGTQVTVSS”, the “polyreactivity (PSR sort gate)” value is reported as “low polyreactivity”.

With “QVHLVESGGGLVQAGGSLRLSCAASGGTFSVYGMGWYRPAPGKERELVAAITVTGGRTYYADSVKGRFTISRDNAKNTVYLQMNSLKPVDSAVYYCNTLPWSRTKRDYWGQGTQVTVSS” the “polyreactivity (PSR sort gate)” value was “low polyreactivity”.

In the case of “QVQLQESGGGLMQAGGSLRLSCTASGTISDVRVMGWYRQAPGRERELVATISYVTITYYADSVKGRFTISRDSEKHRVSADDEPETGRYRGVLLRYYWGLGTQVTVSS”, the “polyreactivity (PSR sort gate)” value is reported as “low polyreactivity”.

With “QVQLVESGGGLVQAGGSLRLSCAASGSTFPINAMGWYRQAPGKERELVACISSGGSTDYADSVKGRFTISRVNAKNTVYLQMNSLKAEHTAVYYWAAVRGPSLVTKYPHDYWGQGTQVTVSS” the “polyreactivity (PSR sort gate)” value was “low polyreactivity”.

With “QVQLHESGGGLVQAGGSLRLSCAASGTISYAGPMGWSRQAPGKEREFVAGIGVGSNTNYADSVKGRYTIIRANAKNTVALQMTCLKPEDTAVYYCAVGGYAPLGRPYWGQGTHVTVSS” the “polyreactivity (PSR sort gate)” value was “low polyreactivity”.

In the case of “QVQLVESGGGLVQAGGSLRLSCAATGSTFARYAMGWSRQAPGKERELVAAISRRGGSTYYADSVTGRFTLSRDNAKNTVYLQMNSLNQEDTAVDSCAARYGIISSFEYDYWGQGTQVTVSS”, the “polyreactivity (PSR sort gate)” value is reported as “high polyreactivity”.

In the case of “QVQLGESGGGLVHEGGSLRLSCAASGFINFANTMGLYRQAPGKERELVAAITSDGSTYYADSVKGRFTISRDNAKNTVYLQMNSLKPEDTAVYYCNAQSNYADLAYWNDYWGQGTQVTVSS”, the “polyreactivity (PSR sort gate)” value is reported as “low polyreactivity”.

In the case of “QVQLVESGGGLVQAGGSLRLSCAASGSTFPRNAMVWYIQAPGKERELVAAISRRGGSTYYADSVKGLFTISRDNAKNTVYLQMNSLKPEDTAVYYCAAATRYAIYGRYSRYDYWGQGTQVTVSS”, the “polyreactivity (PSR sort gate)” value is reported as “high polyreactivity”.

For “QVQLVESGGGLVQAGGSLRLSCAASGFIFSKYAMGWYRQAPGKERELVAAITSGGSTYYADSVKGRFTISRDNAKNTVYLQMNSLKPEDTAVYYCAADSYVPNLNYDYWGQGTQVNVSS”, the “polyreactivity (PSR sort gate)” value was “low polyreactivity”.

In the case of “QVQLVESGGGLVQAGGSLRLSCAASGRTFGYYAMGWYRQAPGKERELVAAISSGGGTYYADSVKGRFTISRDNAKNTVYLLMNSLKPEDTAVYYCAATGWVYWGQFDYWGQGTQVTVSS”, the “polyreactivity (PSR sort gate)” value is reported as “low polyreactivity”.

For “QLQLVESGGGLVQAGGSLRLSCADSASIFTCYAMGWDRQAPGKESELVARINVSAGITYYADSVMGRFTISRDNAKNPVYLQMNSLNPEDTAVYYCAATGLRRPKHNYWGQGPQVTVSS”, the “polyreactivity (PSR sort gate)” value was “low polyreactivity”.

In the case of “QVQLVESGGGLVQAGGSLRLSCAASGSIFYTYVMGWYRQAPGKVREFVAAISKSGGSTYYADSVKGRFTISRDNAKNPVYLQMNSLIPEVTAVYYCAAYPIVSIQRRARGNSWGQGTQVTVSS”, the “polyreactivity (PSR sort gate)” value is reported as “high polyreactivity”.

For “QVQLVESGGGLVQAGGSLRLSCAASGFTFVRNVMGWYRQAPGKERELVAAINTGGTTDYADSVKGRFTISRDNAKNTVYLQMNSLKPEDTAVYNCNADYDSQYHYLLRYDYWGQGSQVTVSS”, the “polyreactivity (PSR sort gate)” value was “low polyreactivity”.

For “QVQLVESGGGLVQAGGSLRLSCAASGGTFYKYAMGWYRQAPGKERELVAAISRSGGSTYYADSVKGRFTISRDNAKNTVYLQMNSLKPEDTAVYYCNAYGSYWDFDYWGQGTQVTVSS”, the “polyreactivity (PSR sort gate)” value was “high polyreactivity”.

For “QVQLVESGGGLVQAGGSRRLSCAASGSISGYNAMGWYRQAPGKERELVAVITTDGSTNYADSVKGRFTISRDNAKNTVYLQMNSLKPEDTAVYYCADYVVWLYGYEYWGQGTQVTVSS”, the “polyreactivity (PSR sort gate)” value was “low polyreactivity”.

For “QVQHVQSGGGLVQAGGSLRLSCAAAGFIYNNAMGWYRQAPGKETELVATISTSGTDTYYADSVKGRFTISRDNAKNTVYLQMNSLKPEDTAVYYCNADTEIYDSYSSYWTRYEYWGQGTQVTVSS”, the “polyreactivity (PSR sort gate)” value was “low polyreactivity”.

In the case of “QVQLVESGGGLVQAGGSLRLSCAASGRIFWGYAMGWYRQAPGKERELVAGIRTSGGTTYYADSVKGRFTISRDNAKNTVYLQMNSLKPEDTAVYYCAVVQYTVYNSLYDYWGQGTQVTVSS”, the “polyreactivity (PSR sort gate)” value is reported as “low polyreactivity”.

For “QVQLVESGGGLVQAGGSLRLSCAASGSTFTWNDMGRYRQAPGKERELVAGISLSAGSTYYADSVKGRFTISRDNAKNTDYLQMNSLKPEDTAVYYCNADPGGPDTYEEHDYWGQGTQVTVSS”, the “polyreactivity (PSR sort gate)” value was “low polyreactivity”.

With “QVQLVESGGGLVQAGGSLRLSCAASGSIFAVYAMGWYRQAPGKERELVASITNDGSTYADSVKGRFTISRDNAKNTVYLQINSQKPEDTAVYYCNADYLTYFTTFDYWGQGTQVTVSS” the “polyreactivity (PSR sort gate)” value was “low polyreactivity”.

In the case of “QVQLVESGGGLVQAGGSLRLSCAASGRTFGGYTMGWYRQAPGKERELVAAINWSGTTYYADSVKGRFTISRDNAKNTVYLQMNSLIPEDTAVYYCAASLVSYYGLARDSVDYWGQGTQVNVSS”, the “polyreactivity (PSR sort gate)” value is reported as “low polyreactivity”.

With “QVQLVESGGCLVQAGGSLRLSCAASGFIFSYYALGWYRQAPGKERELVAAITWDGGSTYYADSVKGRFTISRDNAKNSVYLQMNSLKPEDTAVYYCNAYYYYRRPLEGGYWGQGTQVTVSS” the “polyreactivity (PSR sort gate)” value was “low polyreactivity”.

With “QVQLVESGGGLVQAGGSLRLSCAASGFIFRSYAMGWYRQAPGKERELVAAISSSGGRTYYADSVKGRFTISRDNAKNTVYLQMNSLKPEDTAVYYCATSLYTDNSWDNYWGQGTQVTVSS” the “polyreactivity (PSR sort gate)” value was “high polyreactivity”.

With “QVQLVESGGGLVQAGGSLRLSCADSGSTFPFYAMGWYSHSPGKERELVAAITSGGSTYADYVKGRFTISRDNAKNTVYLQMNSLNPEDTAVYYCAGSWPRWWRFGYWGQGTQVTVSS” the “polyreactivity (PSR sort gate)” value was “low polyreactivity”.

In the case of “QVQLVESGGGLVQAGGSLRLSCAASGSTFSGNAMGWYRQAPGKERELVASITDGGNTYYADSVKGRFTISRDNAKNTVYLQMNSLKPEDTAVYYCAAEILWGGYDYWGQGTQVTVSS”, the “polyreactivity (PSR sort gate)” value is reported as “low polyreactivity”.
